Reference: FireProtDB (doi:10.1038/nsb1296-1019)

Conditions: Equus caballus, pH 2, Sodium phosphate 10 mM, KCl 1 M; for denaturant midpoint (higher = more stable) / unfolding free energy: 10 °C, Acid
[1] = Thermal, CD, transition: 3, structure 1AKK

Cytochrome c L95V, P00004, sequence (P00004 whole entry L95V): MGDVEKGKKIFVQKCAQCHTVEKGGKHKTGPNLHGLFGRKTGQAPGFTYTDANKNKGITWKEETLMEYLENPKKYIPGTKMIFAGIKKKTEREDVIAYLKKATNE
Cytochrome c wild type, P00004, sequence (P00004 whole entry): as the sequence (P00004 whole entry L95V) above, with V95L counted along it
Cytochrome c L95A, P00004, sequence (P00004 whole entry L95A): as the sequence (P00004 whole entry L95V) above, with V95A counted along it

Row | Substance | denaturant midpoint (higher = more stable) (CD, structure 1AKK) | unfolding free energy (CD, structure 1AKK) | denaturant midpoint (higher = more stable) (Fluorescence, structure 1AKK) | unfolding free energy (Fluorescence, structure 1AKK) | ddG of mutation (higher = less stable) (83 °C, Thermal, CD, transition: 3, structure 1AKK) | Tm [1] | change of melting temperature, mutant - wild type (higher = more stable) [1] | unfolding enthalpy (van 't Hoff) [1] | denaturant midpoint (higher = more stable) (CD) | unfolding free energy (CD) | denaturant midpoint (higher = more stable) (Fluorescence) | unfolding free energy (Fluorescence) | Tm (Thermal, CD, transition: 3) | unfolding enthalpy (van 't Hoff) (Thermal, CD, transition: 3)
1 | Cytochrome c L95A, P00004 | 0.83 M | 0.1 kcal/mol | 0.3 M | 0.74 kcal/mol | – | – | – | – | – | – | – | – | – | –
2 | Cytochrome c L95V, P00004 | 0.1 M | 2.59 kcal/mol | 0.08 M | 2.7 kcal/mol | 1.2 kcal/mol | 79 °C | -4 °C | 104 kcal/mol | – | – | – | – | – | –
3 | Cytochrome c wild type, P00004 | – | – | – | – | – | – | – | – | 0.03 M | 4.14 kcal/mol | 0.03 M | 3.54 kcal/mol | 83 °C | 107 kcal/mol
